# B1: U4/U6 small nuclear ribonucleoprotein Prp3 (Homo sapiens), O43395 (parent)
# chain: MALSKRELDELKPWIEKTVKRVLGFSEPTVVTAALNCVGKGMDKKKAADHLKPFLDDSTLRFVDKLFEAVEEGRSSRHSKSSSDRSRKRELKEVFGDDSEISKESSGVKKRRIPRFEEVEEEPEVIPGPPSESPGMLTKLQIKQMMEAATRQIEERKKQLSFISPPTPQPKTPSSSQPERLPIGNTIQPSQAATFMNDAIEKARKAAELQARIQAQLALKPGLIGNANMVGLANLHAMGIAPPKVELKDQTKPTPLILDEQGRTVDATGKEIELTHRMPTLKANIRAVKREQFKQQLKEKPSEDMESNTFFDPRVSIAPSQRQRRTFKFHDKGKFEKIAQRLRTKAQLEKLQAEISQAARKTGIHTSTRLALIAPKKELKEGDIPEIEWWDSYIIPNGFDLTEENPKREDYFGITNLVEHPAQLNPPVDNDTPVTLGVYLTKKEQKKLRRQTRREAQKELQEKVRLGLMPPPEPKVRISNLMRVLGTEAVQDPTKVEAHVRAQMAKRQKAHEEANAARKLTAEQRKVKKIKKLKEDISQGVHISVYRVRNLSNPAKKFKIEANAGQLYLTGVVVLHKDVNVVVVEGGPKAQKKFKRLMLHRIKWDEQTSNTKGDDDEESDEEAVKKTNKCVLVWEGTAKDRSFGEMKFKQCPTENMAREHFKKHGAEHYWDLALSESVLESTD
# partner: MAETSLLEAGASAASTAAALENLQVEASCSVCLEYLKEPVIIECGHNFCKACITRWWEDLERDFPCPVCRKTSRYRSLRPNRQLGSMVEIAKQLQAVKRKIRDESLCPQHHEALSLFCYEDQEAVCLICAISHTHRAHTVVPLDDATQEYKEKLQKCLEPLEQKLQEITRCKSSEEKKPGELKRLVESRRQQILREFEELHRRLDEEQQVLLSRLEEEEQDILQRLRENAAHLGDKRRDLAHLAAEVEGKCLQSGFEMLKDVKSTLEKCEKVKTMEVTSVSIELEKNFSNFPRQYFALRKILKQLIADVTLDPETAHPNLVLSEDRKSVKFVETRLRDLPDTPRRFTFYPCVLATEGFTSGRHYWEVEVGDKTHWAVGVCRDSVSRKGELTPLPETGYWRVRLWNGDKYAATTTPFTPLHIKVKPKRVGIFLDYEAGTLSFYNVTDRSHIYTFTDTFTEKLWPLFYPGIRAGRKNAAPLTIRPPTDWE
# B2: Glycogen phosphorylase, liver form (Homo sapiens), P06737 (parent)
# chain: MAKPLTDQEKRRQISIRGIVGVENVAELKKSFNRHLHFTLVKDRNVATTRDYYFALAHTVRDHLVGRWIRTQQHYYDKCPKRVYYLSLEFYMGRTLQNTMINLGLQNACDEAIYQLGLDIEELEEIEEDAGLGNGGLGRLAACFLDSMATLGLAAYGYGIRYEYGIFNQKIRDGWQVEEADDWLRYGNPWEKSRPEFMLPVHFYGKVEHTNTGTKWIDTQVVLALPYDTPVPGYMNNTVNTMRLWSARAPNDFNLRDFNVGDYIQAVLDRNLAENISRVLYPNDNFFEGKELRLKQEYFVVAATLQDIIRRFKASKFGSTRGAGTVFDAFPDQVAIQLNDTHPALAIPELMRIFVDIEKLPWSKAWELTQKTFAYTNHTVLPEALERWPVDLVEKLLPRHLEIIYEINQKHLDRIVALFPKDVDRLRRMSLIEEEGSKRINMAHLCIVGSHAVNGVAKIHSDIVKTKVFKDFSELEPDKFQNKTNGITPRRWLLLCNPGLAELIAEKIGEDYVKDLSQLTKLHSFLGDDVFLRELAKVKQENKLKFSQFLETEYKVKINPSSMFDVQVKRIHEYKRQLLNCLHVITMYNRIKKDPKKLFVPRTVIIGGKAAPGYHMAKMIIKLITSVADVVNNDPMVGSKLKVIFLENYRVSLAEKVIPATDLSEQISTAGTEASGTGNMKFMLNGALTIGTMDGANVEMAEEAGEENLFIFGMRIDDVAALDKKGYEAKEYYEALPELKLVIDQIDNGFFSPKQPDLFKDIINMLFYHDRFKVFADYEAYVKCQDKVSQLYMNPKAWNTMVLKNIAASGKFSSDRTIKEYAQNIWNVEPSDLKISLSNESNKVNGN
# partner: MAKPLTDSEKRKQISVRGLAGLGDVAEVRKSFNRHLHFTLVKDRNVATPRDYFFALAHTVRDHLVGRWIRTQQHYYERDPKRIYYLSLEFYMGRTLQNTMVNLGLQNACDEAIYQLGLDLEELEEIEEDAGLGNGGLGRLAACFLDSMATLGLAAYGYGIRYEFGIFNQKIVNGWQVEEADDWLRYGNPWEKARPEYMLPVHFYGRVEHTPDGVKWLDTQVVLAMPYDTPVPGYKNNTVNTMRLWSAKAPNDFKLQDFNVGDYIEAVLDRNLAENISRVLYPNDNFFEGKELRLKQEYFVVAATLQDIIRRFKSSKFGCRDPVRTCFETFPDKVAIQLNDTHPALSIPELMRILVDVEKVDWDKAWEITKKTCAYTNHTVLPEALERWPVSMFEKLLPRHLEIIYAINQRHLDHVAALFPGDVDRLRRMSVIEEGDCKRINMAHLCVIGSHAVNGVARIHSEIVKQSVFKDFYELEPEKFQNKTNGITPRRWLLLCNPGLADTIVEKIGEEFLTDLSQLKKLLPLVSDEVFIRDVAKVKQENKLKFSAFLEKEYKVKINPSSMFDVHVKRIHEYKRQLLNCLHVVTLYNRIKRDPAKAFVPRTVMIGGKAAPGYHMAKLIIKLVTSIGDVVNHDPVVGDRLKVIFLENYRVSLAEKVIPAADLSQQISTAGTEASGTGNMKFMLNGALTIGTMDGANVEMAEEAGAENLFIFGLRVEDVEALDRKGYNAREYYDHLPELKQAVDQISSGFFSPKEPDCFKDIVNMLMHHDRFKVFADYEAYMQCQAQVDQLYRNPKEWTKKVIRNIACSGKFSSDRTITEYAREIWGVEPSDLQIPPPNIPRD
# B3: Multifunctional procollagen lysine hydroxylase and glycosyltransferase LH3 (Homo sapiens), O60568 (parent)
# chain: MTSSGPGPRFLLLLPLLLPPAASASDRPRGRDPVNPEKLLVITVATAETEGYLRFLRSAEFFNYTVRTLGLGEEWRGGDVARTVGGGQKVRWLKKEMEKYADREDMIIMFVDSYDVILAGSPTELLKKFVQSGSRLLFSAESFCWPEWGLAEQYPEVGTGKRFLNSGGFIGFATTIHQIVRQWKYKDDDDDQLFYTRLYLDPGLREKLSLNLDHKSRIFQNLNGALDEVVLKFDRNRVRIRNVAYDTLPIVVHGNGPTKLQLNYLGNYVPNGWTPEGGCGFCNQDRRTLPGGQPPPRVFLAVFVEQPTPFLPRFLQRLLLLDYPPDRVTLFLHNNEVFHEPHIADSWPQLQDHFSAVKLVGPEEALSPGEARDMAMDLCRQDPECEFYFSLDADAVLTNLQTLRILIEENRKVIAPMLSRHGKLWSNFWGALSPDEYYARSEDYVELVQRKRVGVWNVPYISQAYVIRGDTLRMELPQRDVFSGSDTDPDMAFCKSFRDKGIFLHLSNQHEFGRLLATSRYDTEHLHPDLWQIFDNPVDWKEQYIHENYSRALEGEGIVEQPCPDVYWFPLLSEQMCDELVAEMEHYGQWSGGRHEDSRLAGGYENVPTVDIHMKQVGYEDQWLQLLRTYVGPMTESLFPGYHTKARAVMNFVVRYRPDEQPSLRPHHDSSTFTLNVALNHKGLDYEGGGCRFLRYDCVISSPRKGWALLHPGRLTHYHEGLPTTWGTRYIMVSFVDP
# partner: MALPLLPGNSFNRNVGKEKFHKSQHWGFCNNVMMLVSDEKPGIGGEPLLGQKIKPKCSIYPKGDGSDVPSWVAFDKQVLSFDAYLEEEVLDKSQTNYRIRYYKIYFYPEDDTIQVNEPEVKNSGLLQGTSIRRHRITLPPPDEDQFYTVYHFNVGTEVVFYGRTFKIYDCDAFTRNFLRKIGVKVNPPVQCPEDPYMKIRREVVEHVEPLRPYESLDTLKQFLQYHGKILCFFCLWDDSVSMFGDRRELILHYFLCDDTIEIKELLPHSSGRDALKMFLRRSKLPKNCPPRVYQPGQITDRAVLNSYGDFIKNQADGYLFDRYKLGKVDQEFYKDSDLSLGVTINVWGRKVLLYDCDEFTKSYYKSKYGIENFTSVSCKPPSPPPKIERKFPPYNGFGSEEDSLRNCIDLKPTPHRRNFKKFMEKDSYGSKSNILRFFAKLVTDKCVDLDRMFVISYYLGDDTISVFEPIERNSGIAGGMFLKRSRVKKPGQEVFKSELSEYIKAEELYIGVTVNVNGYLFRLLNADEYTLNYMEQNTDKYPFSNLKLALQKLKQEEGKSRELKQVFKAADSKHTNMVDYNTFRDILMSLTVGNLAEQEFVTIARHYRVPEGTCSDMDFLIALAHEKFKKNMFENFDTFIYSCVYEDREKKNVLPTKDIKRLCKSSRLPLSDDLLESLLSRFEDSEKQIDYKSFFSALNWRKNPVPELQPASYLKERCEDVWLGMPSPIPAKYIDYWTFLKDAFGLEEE
# B4: N-chimaerin (Homo sapiens), P15882 (parent)
# chain: MALTLFDTDEYRPPVWKSYLYQLQQEAPHPRRITCTCEVENRPKYYGREFHGMISREAADQLLIVAEGSYLIRESQRQPGTYTLALRFGSQTRNFRLYYDGKHFVGEKRFESIHDLVTDGLITLYIETKAAEYIAKMTINPIYEHVGYTTLNREPAYKKHMPVLKETHDERDSTGQDGVSEKRLTSLVRRATLKENEQIPKYEKIHNFKVHTFRGPHWCEYCANFMWGLIAQGVKCADCGLNVHKQCSKMVPNDCKPDLKHVKKVYSCDLTTLVKAHTTKRPMVVDMCIREIESRGLNSEGLYRVSGFSDLIEDVKMAFDRDGEKADISVNMYEDINIITGALKLYFRDLPIPLITYDAYPKFIESAKIMDPDEQLETLHEALKLLPPAHCETLRYLMAHLKRVTLHEKENLMNAENLGIVFGPTLMRSPELDAMAALNDIRYQRLVVELLIKNEDILF
# B5: Retinol dehydrogenase 12 (Homo sapiens), Q96NR8 (parent)
# chain: MLVTLGLLTSFFSFLYMVAPSIRKFFAGGVCRTNVQLPGKVVVITGANTGIGKETARELASRGARVYIACRDVLKGESAASEIRVDTKNSQVLVRKLDLSDTKSIRAFAEGFLAEEKQLHILINNAGVMMCPYSKTADGFETHLGVNHLGHFLLTYLLLERLKVSAPARVVNVSSVAHHIGKIPFHDLQSEKRYSRGFAYCHSKLANVLFTRELAKRLQGTGVTTYAVHPGVVRSELVRHSSLLCLLWRLFSPFVKTAREGAQTSLHCALAEGLEPLSGKYFSDCKRTWVSPRARNNKTAERLWNVSCELLGIRWE
# Variants of: B1
# Settings: with TRIM39, Q9HCM9-2
row,effect of a mutation on the interaction,Variant
1,disrupting interaction strength,P493S
2,disrupting interaction strength,T494M
3,disrupting interaction strength,A489D

# Variants of: B2
# Settings: with pygb_human PYGB
row,effect of a mutation on the interaction,Variant
1,with no effect,N377K
2,with no effect,N339S

# Variants of: B3
# Settings: with efhc2_human EFHC2, Q5JST6
row,effect of a mutation on the interaction,Variant
1,with no effect,N223S

# Variants of: B4
# Settings: with nck2_human NCK2, O43639
# Sequence of nck2_human NCK2, O43639 (O43639 whole entry): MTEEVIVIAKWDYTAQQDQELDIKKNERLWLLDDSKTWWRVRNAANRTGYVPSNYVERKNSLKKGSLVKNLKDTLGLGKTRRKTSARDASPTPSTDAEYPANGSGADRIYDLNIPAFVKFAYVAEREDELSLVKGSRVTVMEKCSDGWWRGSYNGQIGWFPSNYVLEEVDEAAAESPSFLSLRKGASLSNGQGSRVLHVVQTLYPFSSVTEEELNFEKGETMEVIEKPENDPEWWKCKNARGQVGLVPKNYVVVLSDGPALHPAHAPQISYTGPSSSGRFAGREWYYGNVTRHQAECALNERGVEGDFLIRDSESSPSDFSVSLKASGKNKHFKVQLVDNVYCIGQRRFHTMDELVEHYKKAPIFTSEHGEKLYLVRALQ
row,effect of a mutation on the interaction,Variant
1,with no effect,P252Q
2,with no effect,L20F
3,with no effect,G228S
4,with no effect,A223V

# Variants of: B5
# Settings: with RBPMS
row,effect of a mutation on the interaction,Variant
1,with no effect,C285Y
2,with no effect,L99I
